Laboratory results published in paper PMC3681700 (Molecular Biology of the Cell, 2013).
Where two headings read alike, the source gives them in different places. One block for each binder: values may come before it.

Columns and labels:
[1] = biological target: T1, Taxol-stabilized microtubules assembled from bovine brain tubulin (bovine, UniProt Q6B856 1-445)
[2] = biological target: T1, Taxol-stabilized microtubules assembled …; test: co-sedimentation

Kd [1]: 41 ± 7 nM
B1: Ase1 (natural protein, yeast, UniProt P50275 1-885, looked up)
chain: METATSSPLPIKSRRNSENSGSTTVIPHMNPSLATPLTVSTMVNQSNSKEFMKLTPVRIRDFGSPLKNVSTNYHFLDSENGKGNTMDNMYRENFILISKDLEKLLENLNVIYQNIGYSNTEIITKEKIIFTTISNSIKQFFEQADEELKRLSAENGIEQDILNNILERINDPSGIKTIPDLYIRNAILLQESKTVPQSPKKPLSLLSKKAALDTAKKFVLGSFLPRLRDYLKSLITLKHLIQSVKENLPGLTEADNEAIAEFPELSTLTAYLLQIENGKGDIGLSMKFIIDNRKDILKGSAFKTINEESVKHMNEVIKIYEEEYERRFKSVLTKKVSISSICEQLGTPLATLIGEDFEQDLRSYGEEENSTSEIPNFHPVDRERMSKIDITLEKLQAIHKERADKKRLLMEQCQKLWTRLKISQEYIKTFMRNNSSLSTESLGRISKEVMRLEAMKKKLIKKLISDSWDKIQELWRTLQYSEESRSKFIIVFEELRNSATTLQEDELLLETCENELKRLEEKLTLYKPILKLISDFESLQEDQEFLERSSKDSSRLLSRNSHKILLTEEKMRKRITRHFPRVINDLRIKLEEADGLFDQPFLFKGKPLSEAIDIQQQEIEAKYPRCRVRMQRSKKGKCGANKENKVIKNTFKATESSIRVPIGLNLNDANITYKTPSKKTIQGLTKNDLSQENSLARHMQGTTKLSSPNRRATRLLAPTVISRNSKGNIERPTLNRNRSSDLSSSPRINHTHGEHAVKPRQLFPIPLNKVDTKGSHIPQLTKEKALELLKRSTGTTGKENVRSPERKSSLEDYAQKLSSPYKEPEHSIYKLSMSPEGKFQLNIQQKDIESGFDDTSMMEDENDKDFITWKNEQVSKLNGFSFTDI

Kd [2]: 19 ± 2 nM
B2: MAP65-4 (GFP-MAP65-4) (natural protein, Arabidopsis thaliana, UniProt Q9LZY0 1-677, looked up)
chain: MIRNSTEQFSRIETTCGLLLRQLQEIWNEMGETEDEKDASLADIEKECLSVYKRKVEEASRGKANLLKEIAVGRAEIAAIGSSMGGQEIHSNSRLGENLKEELENVNVQLDGLRKRKAERMIRFNEVIDQLLKLSLQLGNPTDYLKKFAAEETDLSLQRLEELRSQLGELQNEKSKRLEEVECLLKTLNSLCSVLGEDFKGMIRGIHSSLVDSNTRDVSRSTLDKLDMMIVNLREAKLQRMQKVQDLAVSLLELWNLLDTPAEEQKIFHNVTCSIALTESEITEANILSVASIKRVEDEVIRLSKIKITKIKEVILRKRLELEEISRKMHMATEVLKSENFSVEAIESGVKDPEQLLEQIDSEIAKVKEEASSRKEILEKVEKWMSACEEESWLEEYNRDDNRYNAGRGAHLTLKRAEKARLLVNKLPGMVEALTAKVTAWENERGNEFLYDGVRVLSMLGQYKTVWEEKEHEKQRQRDMKKLHGQLITEQEALYGSKPSPNKSGKKPLRTPVNAAMNRKLSLGGAMLHQSLKHEKATLNSKRTKYYDQNATSRRDSALPTLSGRRNSELPGRIRSKNVPVAGKAARSPMLRKPLSPVTSNILNSPEDHHKDAYTTKERILTPKTNEEKKRAVPTTPAASVAMTEATTPFTPAVEKRMDEEDVIVEYSFEEVRAGFC

Kd [2]: 21 ± 2 nM
B3: MAP65-1 (GFP-MAP65-1) (natural protein, Arabidopsis thaliana, UniProt Q9FLP0 1-587, looked up)
chain: MAVTDTESPHLGEITCGTLLEKLQEIWDEVGESDDERDKLLLQIEQECLDVYKRKVEQAAKSRAELLQTLSDANAELSSLTMSLGDKSLVGIPDKSSGTIKEQLAAIAPALEQLWQQKEERVREFSDVQSQIQKICGDIAGGLSNEVPIVDESDLSLKKLDDFQSQLQELQKEKSDRLRKVLEFVSTVHDLCAVLGLDFLSTVTEVHPSLDEDTSVQSKSISNETLSRLAKTVLTLKDDKKQRLQKLQELATQLIDLWNLMDTPDEERELFDHVTCNISSSVDEVTVPGALARDLIEQAEVEVDRLDQLKASRMKEIAFKKQSELEEIYARAHVEVNPESARERIMSLIDSGNVEPTELLADMDSQISKAKEEAFSRKDILDRVEKWMSACEEESWLEDYNRDQNRYSASRGAHLNLKRAEKARILVSKIPAMVDTLVAKTRAWEEEHSMSFAYDGVPLLAMLDEYGMLRQEREEEKRRLREQKKVQEQPHVEQESAFSTRPSPARPVSAKKTVGPRANNGGANGTHNRRLSLNANQNGSRSTAKEAGRRETLNRPAAPTNYVAISKEEAASSPVSGAADHQVPASP
